Results as given in patent publication US20240124857A1, “COMPOSITION FOR GUT HEALTH” (DUPONT NUTRITION BIOSCIENCES APS, priority 2021, published 2024).
Numbering of substitutions follows the chain as printed. Numbers in names are those of the source.

How the values were obtained:
[1] = Enzyme acid resistance: residual activity on ATP after incubation at pH 2; assay type: physicochemical; conditions: FIG. 4
Procedure: Enzyme acid resistance: Candidate enzymes were tested for their ability to resist inactivation at low pH by incubating the enzymes in an “acid buffer” of 50 mM glycine and 5 mM CaCl2 at pH 2 for 15 or 60 minutes and comparing their activity to enzymes in a “control buffer” at their optimum pH. The optimum buffer for CRC21323 and CRC21322 was 50 mM acetate pH 4.5 with 5 mM CaCl2. The optimum buffer for all other enzymes was 50 mM bis-Tris pH 6.5 with 5 mM CaCl2. After incubating in the acidic glycine buffer, the enzyme mixtures were neutralized by mixing with an equal volume of neutralization buffer. The neutralization buffer for CRC21323 and CRC21322 was 100 mM acetate and 10 mM CaCl2 at pH 4.5. The neutralization buffer for the other enzymes was 100 mM bis-Tris and 10 mM CaCl2 at pH 6.5. Next, the acid-stressed and control enzyme were tested for their ability to release phosphate from ATP using the reaction conditions and malachite green assay as described in with the following changes. The only substrate tested was ATP. CRC21323 and CRC21322 were tested with a buffer of acetate pH 4.5, but all other enzymes were tested in a buffer of bis-Tris pH 6.5. After determining the concentration of phosphate in each reaction, the residual activity of each enzyme after 15 or 60 min incubation in the “acid buffer” was calculated by dividing the acid-stressed by the control enzyme phosphate concentrations for each enzyme.

[2] = ATPase activity at 0.05 ppm enzyme on 0.1 mM ATP (absorbance 620 nm); assay type: biochemical; conditions: for Activity on ATP (absorbance at 620 nm, blank subtracted), pH 5.0: 50 mM IVIES buffer pH 5; for Activity on ATP (absorbance at 620 nm, blank subtracted), pH 6.0: 50 mM IVIES buffer pH 6
Procedure: Enzyme activity towards ATP or ADP at pH 3 to 9: The ability of candidate enzymes to degrade ATP or ADP to AMP and free phosphate (Pi) was measured using a standard malachite green phosphate detection kit (Sigma Aldrich cat no. MAK307). The enzyme reactions were carried out in 96-well plates with a total volume of 150 μL and contained 250 μM of a substrate, 50 mM of a buffer, 5 mM CaCl2, and a variable concentration of enzyme. The substrate was ATP or ADP. The buffer was glycine (pH 3), acetate (pH 4, 4.5, 5), bis-Tris (pH 5.5, 6, 6.5), or Tris (pH 7, 8, 9). The concentration of enzyme varied from about 1 μg/mL to 1 ng/mL and was adjusted based on the activity of the enzyme so that the amount of phosphate released during the assay was with the dynamic range of the assay (5-100 μM phosphate). The enzyme concentration was determined by the absorbance at 280 nm and using the predicted molecular weight and molar extinction coefficient to calculate the concentration. The enzyme reaction was initiated by the addition of 15 μL enzyme with 135 μL of the other reaction components such that the final reaction composition was as previously described. The reaction was stopped after 5 min by mixing 80 μL of the reaction mixture with 20 μL of the malachite green working reagent. The malachite green working reagent was prepared according to the manufacturer's protocol by mixing 100 parts reagent A with 1 part reagent B. Phosphate standard solutions (0-80 μM) and a negative control reaction without enzyme were also mixed with the malachite green working reagent. All samples were tested in duplicate. The malachite green reaction mixture was allowed to rest at room temperature for 45-60 min and the absorbance at 620 nm was measured. Lastly, the absorbance of the phosphate standards were used to convert the absorbance readings of each sample into phosphate concentrations and the negative control was subtracted from each reaction.
Enzymes of interest were assayed against ATP substrate. The ATPase activity was measured at 0.05 ppm concentration in 50 mM IVIES buffer pH 6 and pH 5 with 0.1 mM ATP as substrate as described in Example 1. Commercial potato apyrase was used as reference. The absorbance at 620 nm was measured and the absorbance of a blank sample (water) was subtracted from each sample.

[3] = pH profile of enzymes on 1 mM ATP; assay type: biochemical; conditions: 50 mM trisodium citrate/citric acid, 5 mM CaCl2, relative to the highest value
Procedure: The pH profile of additional enzymes of interest was assayed using 1 mM ATP, in 50 mM trisodium citrate/citric acid buffer with 5 mM CaCl2. Absorbance was read at 620 nm and all values were set relative to the highest one. Commercial potato apyrase was used as reference. […]

[4] = Relative activity on ATP of CRC22110 single-site variants; assay type: biochemical; conditions: in comparison to CRC22110 wild type

B1: CRC21328: GDA1/CD39 family enzyme, accession CCD05982.1, SEQ ID NO:6 (protein, listed as Legionella pneumophila)
chain: DTNPCEKHSCIAVIDAGSTGSRLHIYSYDTDNTNTPIHIEEIWNKKIKPGFASIQPNSVTIDAYLTMLLADAPIHNIPVYFYATAGMRLLPQSQQKKYYDELEYWFRQQSQWQLVEAKTITGNDEALFDWLAVNYKLDTLKSVQNKSVGVMDMGGASVQIVFPMPKNAEISKHNQVELNIYGQNINLYVHSFLGLGQTEMSHQFLNSPSCFANDYPLPDGESGQGNAPSCKEEVTSLMNSVHKVNQQIQPLLALNPVNEWYSIGGISNLASSQLFHFENSELTNQSLLQQGDNQICHQQWDILNGQYPDDEYLYQYCLLSSYYYALMVDGYGINPNQTIHYIPPEQNLDWTIGVVLHRA
residual activity after incubation at pH 2 ([1]; 60 min in acid buffer, 50 mM glycine, 5 mM CaCl2): greatest resistance | Activity on ATP (absorbance at 620 nm, blank subtracted), pH 5.0 [2]: 0.45 | Activity on ATP (absorbance at 620 nm, blank subtracted), pH 6.0 [2]: 0.27

B2: CRC21322: Acid phosphatase (Class A), accession AEG96708.1, SEQ ID NO:17 (protein)
chain: KENKGFLNADTSPDSLAILPPPPTENSVAFLQDKADYETGRVLKNKERTELAAKDANYKNFGQAFSEAFGMVISAERTPVLYLLLSEVLQDSHDYAMRSAKDHYMRVRPFVLYKNPTCTPEKDDKMAKTGSYPSGHASFGWAAALVLAEINPARETEILKRGMDFGESRVVCGAHWQSDVDSGRIMGAAVVAALHANPRFANTLSEAKKEFAALSAKSE
modifications: Klebsiella aerogenes
stability in acid resistance assay ([1]; pH 2 for 15 or 60 min): least stable | Activity on ATP (absorbance at 620 nm, blank subtracted), pH 5.0 [2]: 0.40 | Activity on ATP (absorbance at 620 nm, blank subtracted), pH 6.0 [2]: 0.07

B3: CRC25100: Acid phosphatase (Class A), internal database, SEQ ID NO:24 (protein)
chain: GENSGFLSPETSPNSLEILPPPPSEGSIAFLNDKANYDIGHTLKNEGRLAQAVSDANYKNLTDAFSKAFGETISEQNTPALYSLLQNVLQDSHDFAMRAAKDHYKRVRPFVIYKDHTCTPAEDTKMAKTGSYPSGHASFGWATALVLSEINPARETEILKRGYEFGQSRVICGAHWQSDVDSGRIMGAAVVASLHNNSDFISALAKAKEEFRKK
modifications: environmental sample
Activity on ATP (absorbance at 620 nm, blank subtracted), pH 5.0 [2]: 1.11 | Activity on ATP (absorbance at 620 nm, blank subtracted), pH 6.0 [2]: 0.90 | Relative activity on ATP, pH 3 [3]: 0.0 | Relative activity on ATP, pH 3.5 [3]: 0.0 | Relative activity on ATP, pH 4 [3]: 0.1 | Relative activity on ATP, pH 4.5 [3]: 0.4 | Relative activity on ATP, pH 5 [3]: 0.8 | Relative activity on ATP, pH 5.5 [3]: 1.0 | Relative activity on ATP, pH 6 [3]: 1.0 | Relative activity on ATP, pH 6.5 [3]: 0.7

B4: CRC22104: GDA1/CD39 family enzyme, accession TAL58835.1, SEQ ID NO:7 (protein, listed as Legionella sp.)
chain: IEQDPCQEKQCMIVVDAGSTGSRLHFYTYDTDETNSPINIEEIWSKRIKPGISHVEANRSSIDAYLVTLLAGTPHSNHVPVYFYATAGMRLLPAAKQKLIYQEIKFWFAQQNQWRLMDAKTIYGSQEALYDWLAVNHQLGTLQSVQTKSVGVMDMGGASVQIVFPVQNNPDLKNNTLAEFNLYGQHIRLAVRSFLGLGQTEMSHQFLNYAPCFANNYPLPDGFLGEGDALSCVEEVASLMNGVHSVNKEIQPLLAANPVNIWYAIGGLSFLADNSVIHFNNYQLTNEQLLQQVDSKICHQEWDVLDEQFPNEEYLYQFCLLSAYYYALMVEGYGLLPNETINYLPSSQNLDWTIGVVLYPRLTVLQ
Activity on ATP (absorbance at 620 nm, blank subtracted), pH 5.0 [2]: 0.05 | Activity on ATP (absorbance at 620 nm, blank subtracted), pH 6.0 [2]: 0.10 | Relative activity on ATP, pH 3 [3]: 0.0 | Relative activity on ATP, pH 3.5 [3]: 0.0 | Relative activity on ATP, pH 4 [3]: 0.0 | Relative activity on ATP, pH 4.5 [3]: 0.3 | Relative activity on ATP, pH 5 [3]: 0.8 | Relative activity on ATP, pH 5.5 [3]: 0.9 | Relative activity on ATP, pH 6 [3]: 1.0 | Relative activity on ATP, pH 6.5 [3]: 1.0

B5: CRC22110v8: single-site variant F205A of CRC22110 (SEQ ID NO: 9) (protein, listed as Gallaecimonas xiamenensis)
chain: ADKPACRAVFDAGSSGTRLFLYVQQEGGWQPWPGAKLGALADPVRQHQGPKAMAALAADLANSLEALRQDGPTNSEGQPRWQGFDWQQACRLQSVSVLATAGMRLAEQQDPVASVALWQEVQQALAGLLGPAVAIDARTLTGFEEGFYAWLAARARLGRSDMGIVEMGGASSQVAFPCPACDRADDAVQQVRLEGQTLDFYSYSALGLGQDEAPKVLGVPHACRYGAGVKDPNWQLGQCQAQLPLTLGRALKDPYNFQGQGQGGYRQVPTEKAGVKDWLLTGAFQYNTPDQLDSCCLNQGQCYQPSTACFRVAYLPLYLDSLGVDPHSPDLDVSWTLGAVLCRNEQCLAPSKPPCRWRKAGCLAPSVGDGRPEGRPGQQPGGVQHRQH
Relative activity (%) on ATP [4]: 68%

B6: CRC22110v9: single-site variant F205L of CRC22110 (SEQ ID NO: 9) (protein, listed as Gallaecimonas xiamenensis)
chain: B5 chain with A205L
Relative activity (%) on ATP [4]: 68%

B7: CRC22110v2: single-site variant L206A of CRC22110 (SEQ ID NO: 9) (protein, listed as Gallaecimonas xiamenensis)
chain: B5 chain with A205F, L206A
Relative activity (%) on ATP [4]: 60%

B8: CRC22110v10: single-site variant L206I of CRC22110 (SEQ ID NO: 9) (protein, listed as Gallaecimonas xiamenensis)
chain: B5 chain with A205F, L206I
Relative activity (%) on ATP [4]: 16%

B9: CRC22110v3: single-site variant G207A of CRC22110 (SEQ ID NO: 9) (protein, listed as Gallaecimonas xiamenensis)
chain: B5 chain with A205F, G207A
Relative activity (%) on ATP [4]: 60%

B10: CRC22110v4: single-site variant L208A of CRC22110 (SEQ ID NO: 9) (protein, listed as Gallaecimonas xiamenensis)
chain: B5 chain with A205F, L208A
Relative activity (%) on ATP [4]: 74%

B11: CRC22110v5: single-site variant G209A of CRC22110 (SEQ ID NO: 9) (protein, listed as Gallaecimonas xiamenensis)
chain: B5 chain with A205F, G209A
Relative activity (%) on ATP [4]: 16%

B12: CRC22110v1: single-site variant S204A of CRC22110 (SEQ ID NO: 9) (protein, listed as Gallaecimonas xiamenensis)
chain: B5 chain with S204A, A205F
Relative activity (%) on ATP [4]: 37%

B13: CRC22110v7: single-site variant S204T of CRC22110 (SEQ ID NO: 9) (protein, listed as Gallaecimonas xiamenensis)
chain: B5 chain with S204T, A205F
Relative activity (%) on ATP [4]: 53%
